Test results as given in doi:10.1101/2020.08.11.244863.

Legend:
[1] = target: SARS-CoV-2 Nsp15 H250A (SARS-CoV-2); experiment: SEC
[2] = target: SARS-CoV-2 Nsp15 H235A (SARS-CoV-2); experiment: cryo-EM structure
[3] = target: SARS-CoV-2 Nsp15 H235A (SARS-CoV-2); experiment: SEC

SARS-CoV-2 Nsp15 H250A (enzyme) was tested, and the stoichiometry N [1] was 6.
SARS-CoV-2 Nsp15 H235A (enzyme) showed a stoichiometry N [2] of 6 and a stoichiometry N [3] of 6.
